According to patent publication US20240002536A1 (GENERAL HOSPITAL, published 2024):
Primed or numbered codes have the meaning given here. Ends that are not written are not given here. * marks the point of attachment. Biotin = O=C1N[C@H]2[C@H](CS[C@H]2CCCCC(=O)*)N1; DBCO′ = dibenzocyclooctyne

T1: db1
T1 construct: Unclicked precursor of Az3db1; also called DBCO-ARPDGG; db1 half-peptide
T1 peptide: {DBCO′}-ARPDGG

T2: Az3
T2 construct: Unclicked precursor of Az3db1; also called azide-peptide Az3; single half-peptide
T2 peptide: Biotin-SGGGERTHK(azide)

T3: Az3db1 (also: triazole at chain A 9 to a chain's N-terminus)
T3 construct: Two synthetic peptides joined through the azide-DBCO click product; conversion to the click product was >=70%; also called click product of peptides Az3 and db1; original selection peptide
T3 peptide 1: Biotin-SGGGERTHK(azide)
T3 peptide 2: {DBCO′}-ARPDGG

B1: scFv-64 (scFv)
scFv: EVQLVESGSELKKPGASVKVSCKASGYTFTSYAINWVRQAPGQGLEWMGWINTNTGNPTYAQGFTGRFVFSLDTSVSTAYLQISSLKAEDTAVYYCARGYYDSSGYNFDYWGKGTLVTVSSGGGGSGGGGSGGGGSQAVLTQPSSLSASPGASASLTCTLRSGINVGTYRIYWYQQKPGSPPQYLLRYKSDSDKQQGSGVPSRFSGSKDASANAGILLISGLQSEDEADYYCMIWHSSAWVFGGGTKLTVLG
notes: VH-(GGGGS)3 linker-VL from the human phage library HuScL-6; It was also expressed as an E. coli hexahistidine (6H) fusion
B2: scFv-36 (scFv)
scFv: QVQLVQSGAEVKKPGASVKVSCKASGYTFTSYGISWVRQAPGQGLEWMGWINTNTGNPTYAQGFTGRSVFSLDTSVSTAYLQISSLKAEDSAVYYCARHSDDGAFDIWGKGTMVTVSSGGGGSGGGGSGGGGSQAVLTQPSSLSASPGASASLTCTLRSGINVGTYRIYWYQQKPGSPPQYLLRYKSDSDKQQGSGVPSRFSGSKDASANAGTLLISGLQSEDEADYYCAIWHSSTWVFGGGTKVTVLG
notes: VH-(GGGGS)3 linker-VL from the human phage library HuScL-6; Protein ELISAs used an E. coli hexahistidine (6H) fusion; also called scFv-2S; 2S
B3: scFv-44 (scFv)
scFv: QVQLVQSGAEVKKPGSSVKVSCKASGYTFADYAINWVRQAPGQGLEWMGWINTNTGNPTYAQGFTGRFVFSLDTSVSTAYLQISSLEAEDTAVYYCARHFSGYSLDAVDIWGQGTLVTVSSGGGGSGGGGSGGGGSQAVLTQPSSLSASPGTSASLTCTLRSDINVGAYRIYWYKHKAGSPPQFLLRFKSDSDNYRGSGVPGRFSGSKDASANAGILLISGLQSEDEADYYCAIWHSSTWVFGGGTKLTVLG
notes: VH-(GGGGS)3 linker-VL from the human phage library HuScL-6; Protein ELISAs used an E. coli hexahistidine (6H) fusion; also called scFv-3S; 3S
B4: scFv-72 (scFv)
scFv: EVQLVESGAEVKKPGASVKVSCKASGYTFTSYAMNWVRQAPGQGLEWMGWINTNTGNPTYAQGFTGRFVFSLDTSVSTAYLQISSLKAEDTAVYYCARQRDYRMDVWGQGTMVTVSSGGGGSGGGGSGGGGSQAVLTQPSSLSASPGASASLTCTLRSGINVGTYRIYWYQQKPGSPPQYLLRYKSDSDKQQASGVPSRFSGSKDASANAGILLISGLQSEDEADYYCLIWHNNAWVFGGGTKVTVLG
notes: VH-(GGGGS)3 linker-VL from the human phage library HuScL-6; expression as a protein failed
B5: scFv-18 (scFv)
scFv: QVQLVESGSELKKPGASVKVSCKASGYTFTNYAMNWVRQAPGQGLEWLGWINTNTGNPTYAQGFTGRFVFSLDTSVSTAYLQISSLKAEDTAVYYCARGSLGGTFDYWGQGTPVTVSSGGGGSGGGGSGGGGSQAVLTQPSSLSASPGASASLTCTLRSGINVGTYRIYWYQQKPGSPPQYLLRYKSDSDKHQDSGVPSRFSGSTDASANAGILLISGLQSEDEADYYCMIWHSRAWVFGGGTRGEIKR
notes: VH-(GGGGS)3 linker-VL from the human phage library HuScL-6; Protein ELISAs used an E. coli hexahistidine (6H) fusion; also called scFv-1S; 1S
B6: scFv-83 (scFv)
scFv: QVQLVQSGAEVKKPGASVKVSCKASGYSFTSYAMNWVRQAPGQGLEWMGWINTNTGNPMYAQGFTGRFVFSLDTSVSTAYLEVSSLKAEDTAVYFCARYNAMDVWGQGTTVTVSSGGGGSGGGGSGGGGSQAVLTQPSSLSASPGASASLTCTLRSGINVGTYRIYWYQQKPGSPPQYLLRYKSDSDKQQGSGVPSRFSGSKDASANAGILLISGLQSEDEADYYCMIWHSSAWVFGGGTKVTVLG
notes: as for B4
B7: IgG1-51 (antibody, V domains shown)
VH: QMQLVQSGSELKKPGASVKVSCKASGYTFTSYAMNWVRQAPGQGLEWMGWINTNTGNPTYAQGFTGRFVFSLDTSVSTAYLQISSLKAEDTAVYYCARFDRPRGAFDIWGQGTLVTVSS
VL: QAVLTQPSSLSASPGASASLTCTLRSGINVGTYRIYWYQQKPGSPPQYLLRYKSDSDKQQGSGVPSRFSGSKDASANAGILLISGLQSEDEADYYCMIWHSSAWVFGGGTKLTVLG
notes: VH and VL of scFv-51 fused in frame to human Cgamma1 and Ckappa and co-expressed in Hek293 cells; also called Ab51; antibody 51; not shown: Human Gamma1 C-region, Uniprot code P01857.1; Human Kappa C-region, Uniprot code P01834.2
B8: scFv-69 (scFv)
scFv: QVQLVQSGSELKKPGASVKVSCKASGYTFTSYAMNWVRQAPGQGLEWMGWINTNTGNPTYAQGFTGRFVFSLDTSVSTAYLQISSLKAEDTAVYYCARGAAGVFDIWGKGTTVTVSSGGGGSGGGGSGGGGSQAVLTQPSSLSASPGASASLTCTLRSGINVGTYNIYWYQQKPGSPPQFLLRYKSDSDKQQVSGVPSRFSGSKDGSANAGILLISGLQSEDEADYYCMIWHSSAWVFGGGTKLTVLG
notes: as for B1

Tests used:
[1] = molecular target: T1, db1; experiment: phage ELISA, scFv displayed on M13
[2] = molecular target: T2, Az3; experiment: phage ELISA, scFv displayed on M13
[3] = molecular target: T2, Az3; experiment: competition ELISA: ratio of response slopes on immobilised Az3db1 without competitor / with soluble Az3
Experimental: (§1) We ranked the five scFv proteins 1S-5S in terms of their desired specificities and binding affinities. For this purpose, a series of ELISA-based competition assays were established, where scFvs were preincubated in solution with designated competitors before testing against immobilized target Az3db1 peptide. These included Az3db1 itself, and its constituent peptides Az3 and db1, in large (×100-fold) molar excess over the scFv proteins.
(§2) All ELISA assays used biotinylated target peptides for immobilized on streptavidin (SA) plates. For testing responses against Az3db1 (FIG. 3), a stock of the click product between peptides Az3 and db1 was made by incubating both together at 4.5 mM concentration in PBS pH 7.4 for 16 hr, conditions resulting in ≥70% conversion to the click product (FIG. 4). The resulting Az3db1 was positioned in an SA plate by incubating appropriate wells (after initial plate washing) with 100 μl of 1 pmol/μl of peptide. Dilutions of scFvs or IgG1-51 were made in PBS with 10 mg/ml bovine serum albumin (BSA) to levels typically beginning at 50 pg/μl, then in extended 2-fold dilution series from that point. Antibody or scFv dilutions were then incubated with Az3db1 target for 1 hr/room temperature, followed by treatment with appropriate secondary antibody-HRP conjugates (anti-human kappa for IgG1-51, anti-6H hexahistidine for all scFvs). After extensive washing, signals based on HRP activity from standard chromogenic substrates were read in a plate reader and collated.

[4] = molecular target: T1, db1; experiment: competition ELISA: ratio of response slopes on immobilised Az3db1 without competitor / with soluble Db1
Experimental: as §1
as §2, with “Antibody or scFv dilutions were then incubated with Az3db1 target for 1 hr/room temperature, followed by treatment with appropriate secondary antibody-HRP conjugates (anti-human kappa for IgG1-51, anti-6H hexahistidine for all scFvs).” left out

[5] = molecular target: T3, Az3db1; experiment: competition ELISA after Friguet, plot of Ao/(Ao-A) against 1/a0 with soluble Az3Db1 competitor; one single determination
Experimental: The binding affinity of IgG1-51 antibody towards Az3db1 was measured in an ELISA-based format by the method of Friguet et al. (1985), to yield the dissociation constant (KD) from a specific data plot. Because the total concentration of free competitor in these studies is large compared to the concentration of antibody (antibody concentration ˜0.1 nm), the simplification of the Scatchard-Klotz equation as derived by Friguet et al. was used, as: […]

[6] = molecular target: T3, Az3db1; experiment: ELISA-based competition in solution by the method of Friguet et al.; average of four independent determinations
[7] = molecular target: (glycan chain)--(N-acetylmannosamine)-<azide-DBCO>-ARPDGG; experiment: flow cytometry on Jurkat cells pre-incubated with AzNAM and treated with Db1 peptide; DMSO-control cells treated with Db1 printed as 'Geo. Mean = 1.4'

| Binder | binding result [1] | binding result [2] | binding result [3] | also measured |
| --- | --- | --- | --- | --- |
| B1 | no binding | no binding |  |  |
| B2 |  |  | no binding |  |
| B3 |  |  | no binding | binding result [4]: no binding |
| B4 | no binding | no binding |  |  |
| B5 |  |  | no binding | binding result [4]: no binding |
| B6 | no binding | no binding |  |  |
| B7 |  |  |  | Kd [5]: 175 nM; Kd [6]: 160 nM; geometric mean fluorescence (Geo. Mean) [7]: 226 |
| B8 | no binding | no binding |  |  |
